Measurements reported in patent US20190330374A1 (IGM BIOSCIENCES, published 2019).
Each block holds one binder with its values, some of them ahead of it.

Key:
[1] = target: OX40 in the PathHunter U2OS OX40 Signaling Assay (DiscoverX) cells; test: cell-based or functional assay
[2] = target: T1, OX40 on activated T cells (PBMCs activated with Human T cell Activator Dynabeads) (human, UniProt P43489 29-277); test: flow cytometry on activated PBMC T cells
T1 construct: Native OX40 on donor PBMC T cells; also called OX40 on CD8+ T cells (low levels); OX40 on CD4+ T cells (high levels)
T1 sequence: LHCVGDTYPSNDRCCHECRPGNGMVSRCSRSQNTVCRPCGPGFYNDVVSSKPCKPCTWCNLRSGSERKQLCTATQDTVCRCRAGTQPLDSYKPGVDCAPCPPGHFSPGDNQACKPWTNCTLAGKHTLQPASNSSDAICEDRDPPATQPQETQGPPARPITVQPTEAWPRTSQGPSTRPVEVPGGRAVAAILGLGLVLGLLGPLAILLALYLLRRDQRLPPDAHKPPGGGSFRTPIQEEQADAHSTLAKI

fold increase in NF-kB activation (RLU at the highest antibody concentration) compared to uncross-linked Anti-OX40 #1-IgG [1]: 23 fold
fold increase in signaling activation (RLU at the highest antibody concentration) compared to cross-linked Anti-OX40 #1-IgG [1]: 13 fold
B1: Anti-OX40 #1-IgM (antibody, V domains shown)
VH: QVQLQESGPGLVKPSQTLSLTCAVYGGSFSSGYWNWIRKHPGKGLEYIGYISYNGITYHNPSLKSRITINRDTSKNQYSLQLNSVTPEDTAVYYCARYKYDYDGGHAMDYWGQGTLVTVSS
VL: DIQMTQSPSSLSASVGDRVTITCRASQDISNYLNWYQQKPGKAPKLLIYYTSKLHSGVPSRFSGSGSGTDYTLTISSLQPEDFATYYCQQGSALPWTFGQGTKVEIK

binding result [2]: binds
B2: Anti-OX40 #1-IgG (antibody, V domains shown)
VH: B1 VH
VL: B1 VL
notes: VH and VL put into an IgG format by standard cloning; It was detected with anti-human kappa light chain, so the light chain is kappa; also called anti-OX40 IgG #1
